From patent US20230406935A1 (F STAR THERAPEUTICS, published 2023)
Changes are numbered by the printed parent chain.

B1: Fcab FS17-33-116 (designed binder)
chain: TCPPCPAPELLGGPSVFLFPPKPKDTLMISRTPEVTCVVVDVSHEDPEVKFNWYVDGVEVHNAKTKPREEQYNSTYRVVSVLTVLHQDWLNGKEYKCKVSNKALPAPIEKTISKAKGQPREPQVYTLPPSRDESGYWVSLTCLVKGFYPSDIVVEWESNGEPQYWAKTTPPVLDSDGSFFLYSKLTVSNWRWQMDDFSCSVMHEALHNHYTQKSLSLSPGK
B2: FS17-33-451AA/MSL109 mock mAb^2 (bispecific antibody, human IgG1, kappa, L234A L235A)
heavy: EEQVLESGGGLVKPGGSLRLSCAASGFTFSPYSVFWVRQAPGKGLEWVSSINSDSTYKYYADSVKGRFTISRDNAENSIFLQMNSLRAEDTAVYYCARDRSYYAFSSGSLSDYYYGLDVWGQGTTVIVSSASTKGPSVFPLAPSSKSTSGGTAALGCLVKDYFPEPVTVSWNSGALTSGVHTFPAVLQSSGLYSLSSVVTVPSSSLGTQTYICNVNHKPSNTKVDKKVEPKSCDKTHTCPPCPAPEAAGGPSVFLFPPKPKDTLMISRTPEVTCVVVDVSHEDPEVKFNWYVDGVEVHNAKTKPREEQYNSTYRVVSVLTVLHQDWLNGKEYKCKVSNKALPAPIEKTISKAKGQPREPQVYTLPPSRDEEGYWVSLTCLVKGFYPSDIAVEWESNGEPQYWAKTTPPVLDSDGSFFLYSKLTVSNWRWQLDDVFSCSVMHEALHNHYTQKSLSLSPGK
light: DIVMTQSPLSLSVTPGEPASISCRSSQSLLHTNGYNYLDWYVQKPGQSPQLLIYLASNRASGVPDRFSGSGSGTDFTLKISRVETEDVGVYYCMQALQIPRTFGQGTKVEIKRTVAAPSVFIFPPSDEQLKSGTASVVCLLNNFYPREAKVQWKVDNALQSGNSQESVTEQDSKDSTYSLSSTLTLSKADYEKHKVYACEVTHQGLSSPVTKSFNRGEC
notes: also called FS17-33-451AA/MSL109 (parent 2)
B3: FS17-33-548AA/MSL109 (bispecific antibody, human IgG1, kappa, L234A L235A)
heavy: B2 heavy with D432G
light: B2 light
B4: FS17-33-539AA/MSL109 (bispecific antibody, human IgG1, kappa, L234A L235A)
heavy: B2 heavy with E371T, D432G, H445R
light: B2 light
B5: Fcab FS17-33-289 (designed binder)
chain: B1 chain with M194L
B6: Fcab FS17-33-334 with LALA mutation (designed binder)
chain: B1 chain with L10A, L11A, V153A, M194L
B7: Fcab FS17-33-296 with LALA mutation (designed binder)
chain: B1 chain with L10A, L11A, M194V
B8: Fcab FS17-33-296 (designed binder)
chain: B1 chain with M194V
B9: FS17-33-296/HelD1.3 mock mAb^2 (without LALA) (bispecific antibody, human IgG1, kappa)
heavy: QVQLQESGPGLVRPSQTLSLTCTVSGSTFSGYGVNWVRQPPGRGLEWIGMIWGDGNTDYNSALKSRVTMLVDTSKNQFSLRLSSVTAADTAVYYCARERDYRLDYWGQGSLVTVSSASTKGPSVFPLAPSSKSTSGGTAALGCLVKDYFPEPVTVSWNSGALTSGVHTFPAVLQSSGLYSLSSVVTVPSSSLGTQTYICNVNHKPSNTKVDKKVEPKSCDKTHTCPPCPAPELLGGPSVFLFPPKPKDTLMISRTPEVTCVVVDVSHEDPEVKFNWYVDGVEVHNAKTKPREEQYNSTYRVVSVLTVLHQDWLNGKEYKCKVSNKALPAPIEKTISKAKGQPREPQVYTLPPSRDESGYWVSLTCLVKGFYPSDIVVEWESNGEPQYWAKTTPPVLDSDGSFFLYSKLTVSNWRWQVDDFSCSVMHEALHNHYTQKSLSLSPGK
light: DIQMTQSPASLSASVGETVTITCRASGNIHNYLAWYQQKQGKSPQLLVYNAKTLADGVPSRFSGSGSGTQYSLKINSLQPEDFGSYYCQHFWSTPRTFGGGTKLEIKRTVAAPSVFIFPPSDEQLKSGTASVVCLLNNFYPREAKVQWKVDNALQSGNSQESVTEQDSKDSTYSLSSTLTLSKADYEKHKVYACEVTHQGLSSPVTKSFNRGEC
B10: FS17-33-449/HelD1.3 mock mAb^2 (without LALA) (bispecific antibody, human IgG1, kappa)
heavy: QVQLQESGPGLVRPSQTLSLTCTVSGSTFSGYGVNWVRQPPGRGLEWIGMIWGDGNTDYNSALKSRVTMLVDTSKNQFSLRLSSVTAADTAVYYCARERDYRLDYWGQGSLVTVSSASTKGPSVFPLAPSSKSTSGGTAALGCLVKDYFPEPVTVSWNSGALTSGVHTFPAVLQSSGLYSLSSVVTVPSSSLGTQTYICNVNHKPSNTKVDKKVEPKSCDKTHTCPPCPAPELLGGPSVFLFPPKPKDTLMISRTPEVTCVVVDVSHEDPEVKFNWYVDGVEVHNAKTKPREEQYNSTYRVVSVLTVLHQDWLNGKEYKCKVSNKALPAPIEKTISKAKGQPREPQVYTLPPSRDETGYWVSLTCLVKGFYPSDIAVEWESNGEPQYWAKTTPPVLDSDGSFFLYSKLTVSNWRWQLDDVFSCSVMHEALHNHYTQKSLSLSPGK
light: B9 light
B11: FS17-33-449AA/HelD1.3 mock mAb^2 (bispecific antibody, human IgG1, kappa, L234A L235A)
heavy: B10 heavy with L233A, L234A
light: B9 light
B12: FS17-33-451/HelD1.3 mock mAb^2 (without LALA) (bispecific antibody, human IgG1, kappa)
heavy: B10 heavy with T357E
light: B9 light
B13: FS17-33-451AA/HelD1.3 mock mAb^2 (bispecific antibody, human IgG1, kappa, L234A L235A)
heavy: B10 heavy with L233A, L234A, T357E
light: B9 light
notes: also called F17-33-451AA/HelD1.3; F17-33-451AA/HELD1.3

Target: T1, Human PD-L1 expressed on cells (human, UniProt Q9NZQ7 19-290)
T1 sequence (Q9NZQ7 19-290 limits assumed): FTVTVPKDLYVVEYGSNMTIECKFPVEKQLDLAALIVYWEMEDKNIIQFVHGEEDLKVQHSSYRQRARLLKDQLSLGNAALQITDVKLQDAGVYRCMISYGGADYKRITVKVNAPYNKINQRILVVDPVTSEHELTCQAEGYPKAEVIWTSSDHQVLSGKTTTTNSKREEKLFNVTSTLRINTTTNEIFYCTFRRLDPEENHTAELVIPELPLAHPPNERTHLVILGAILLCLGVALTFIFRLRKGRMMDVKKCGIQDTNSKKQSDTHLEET
Experiment: cell-based or functional assay

| Binder | SEB assay EC50 |
| --- | --- |
| B1 | 0.0753 nM |

Target: T1, Human PD-L1 expressed on cells
Experiment: cell-based or functional assay
Remark: another data set of the same source

| Binder | SEB EC50 |
| --- | --- |
| B2 | 1.11 nM |
| B3 | 3.21 nM |
| B4 | 0.97 nM |

Target: T1, Human PD-L1 expressed on cells
Experiment: cell-based or functional assay
Remark: another data set of the same source

| Binder | SEB assay (IFNγ release) EC50 |
| --- | --- |
| B5 | 0.0886 nM |
| B6 | 0.144 nM |
| B7 | 0.124 nM |
| B8 | 0.0869 nM |
| B9 | 1.71 nM |
| B10 | 0.644 nM |
| B11 | 0.55 nM |
| B12 | 0.852 nM |
| B13 | 1.12 nM |
